The target in this experiment is murine IL-17 (mouse) (UniProt Q62386). Nature of the experiment: assay not described; table titled 'Source And Binding Information'.
Sequence of murine IL-17 (mouse) (Q62386 26-158 limits assumed): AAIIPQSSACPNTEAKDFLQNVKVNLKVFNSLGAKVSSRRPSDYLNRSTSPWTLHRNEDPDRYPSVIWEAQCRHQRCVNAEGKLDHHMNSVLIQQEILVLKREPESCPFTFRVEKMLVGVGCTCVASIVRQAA

With anti-murine IL-17 antibody MAB421, the IC50 was 700 pM.

The term IC50 denotes the point on the concentration scale where inhibition reaches its midpoint. High values mean lower potency, low ones higher potency.

Source of the values: patent US20160000936A1.
